Measured values reported in patent publication US20140135264A1 (CLEVELAND CLINIC FOUNDATION, published 2014).
Blank lines part the entries; values can stand above or below the molecule they belong to.

How the values were obtained:
[1] = target: αvβ3 integrin, wild type, on mouse lung endothelial cells (WT EC) (mouse) (UniProt P43406); experiment: flow cytometry, FITC-fibrinogen on WT mouse lung EC, 1 mM MnCl2 against unstimulated cells
[2] = target: DiYF β3 integrin (αvβ3 with β3 tyrosines 747 and 759 substituted for phenylalanines), on DiYF mouse lung endothelial cells (mouse) (UniProt P43406); experiment: flow cytometry, FITC-fibrinogen on DiYF mouse lung EC, 1 mM MnCl2 against unstimulated cells
[3] = target: DiYF β3 integrin (αvβ3 with β3 tyrosines 747 and 759 substituted for phenylalanines), on DiYF mouse lung endothelial cells (mouse) (UniProt P43406); experiment: flow cytometry, FITC-fibrinogen on DiYF mouse lung EC, 20 ng/ml VEGF against unstimulated cells
[4] = target: αvβ3 integrin, wild type, on mouse lung endothelial cells (WT EC) (mouse) (UniProt P43406); experiment: flow cytometry, FITC-fibrinogen on WT mouse lung EC, 20 ng/ml VEGF against unstimulated cells (printed as 'at least')
[5] = target: VEGF receptor-2 on mouse lung endothelial cells (mouse) (UniProt P35918); experiment: cell-based or functional assay
Sequence of VEGF receptor-2 on mouse lung endothelial cells (mouse) (P35918 20-1345): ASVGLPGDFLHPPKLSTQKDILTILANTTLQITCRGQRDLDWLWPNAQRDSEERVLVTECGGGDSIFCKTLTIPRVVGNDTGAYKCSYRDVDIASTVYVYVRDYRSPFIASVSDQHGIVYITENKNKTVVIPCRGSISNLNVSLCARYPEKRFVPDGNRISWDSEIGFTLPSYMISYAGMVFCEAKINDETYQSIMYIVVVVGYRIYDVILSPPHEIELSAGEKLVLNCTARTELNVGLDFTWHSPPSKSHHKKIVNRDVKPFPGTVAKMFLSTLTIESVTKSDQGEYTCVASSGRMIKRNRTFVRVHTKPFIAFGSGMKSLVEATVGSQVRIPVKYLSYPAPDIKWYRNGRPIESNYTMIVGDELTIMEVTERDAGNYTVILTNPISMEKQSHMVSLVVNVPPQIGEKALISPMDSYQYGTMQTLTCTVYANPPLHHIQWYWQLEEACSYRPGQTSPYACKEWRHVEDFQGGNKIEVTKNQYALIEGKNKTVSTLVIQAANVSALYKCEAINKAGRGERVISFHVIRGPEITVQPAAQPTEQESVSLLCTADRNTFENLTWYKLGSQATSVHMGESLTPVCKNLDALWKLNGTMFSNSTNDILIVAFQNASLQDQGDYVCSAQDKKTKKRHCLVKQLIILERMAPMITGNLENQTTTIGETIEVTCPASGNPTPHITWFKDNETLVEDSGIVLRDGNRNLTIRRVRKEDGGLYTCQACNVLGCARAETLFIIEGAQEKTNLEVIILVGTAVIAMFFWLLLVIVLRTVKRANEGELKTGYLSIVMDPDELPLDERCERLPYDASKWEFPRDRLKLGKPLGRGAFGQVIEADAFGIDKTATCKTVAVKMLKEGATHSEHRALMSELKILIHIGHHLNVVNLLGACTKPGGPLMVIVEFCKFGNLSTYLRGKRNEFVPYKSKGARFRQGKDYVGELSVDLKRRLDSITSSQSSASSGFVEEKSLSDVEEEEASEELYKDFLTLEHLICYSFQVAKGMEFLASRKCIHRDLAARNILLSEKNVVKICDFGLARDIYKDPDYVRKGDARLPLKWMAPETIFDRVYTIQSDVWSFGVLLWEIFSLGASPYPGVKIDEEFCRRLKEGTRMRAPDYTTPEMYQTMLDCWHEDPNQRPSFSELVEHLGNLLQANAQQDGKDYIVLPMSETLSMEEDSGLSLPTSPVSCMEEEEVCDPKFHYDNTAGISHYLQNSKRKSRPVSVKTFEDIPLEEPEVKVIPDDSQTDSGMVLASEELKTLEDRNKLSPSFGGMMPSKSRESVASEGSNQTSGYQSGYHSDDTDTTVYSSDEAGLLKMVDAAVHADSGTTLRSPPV

[6] = target: αvβ3 integrin on human endothelial cells (HUVEC; vasculature of human prostate tissue) (human) (UniProt P06756); experiment: flow cytometry, WOW-1 Fab on HUVEC, VEGF-A165 against resting cells
[7] = target: αvβ3 integrin, wild type, on mouse lung endothelial cells (WT EC) (mouse) (UniProt P43406); experiment: flow cytometry, WOW-1 Fab on WT mouse lung EC, 1 mM MnCl2 against unstimulated cells
[8] = target: DiYF β3 integrin (αvβ3 with β3 tyrosines 747 and 759 substituted for phenylalanines), on DiYF mouse lung endothelial cells (mouse) (UniProt P43406); experiment: flow cytometry, WOW-1 Fab on DiYF mouse lung EC, 1 mM MnCl2 against unstimulated cells
[9] = target: αvβ3 integrin, wild type, on mouse lung endothelial cells (WT EC) (mouse) (UniProt P43406); experiment: flow cytometry, WOW-1 Fab on WT mouse lung EC, 20 ng/ml VEGF against unstimulated cells
[10] = target: DiYF β3 integrin (αvβ3 with β3 tyrosines 747 and 759 substituted for phenylalanines), on DiYF mouse lung endothelial cells (mouse) (UniProt P43406); experiment: flow cytometry, WOW-1 Fab on DiYF mouse lung EC, 20 ng/ml VEGF against unstimulated cells
[11] = target: αvβ3 integrin on human endothelial cells (HUVEC; vasculature of human prostate tissue) (human) (UniProt P06756); experiment: immunohistochemistry, WOW-1 staining density, prostate carcinoma against normal prostate tissue
[12] = target: DiYF β3 integrin (αvβ3 with β3 tyrosines 747 and 759 substituted for phenylalanines), on DiYF mouse lung endothelial cells (mouse) (UniProt P43406); experiment: cell-based or functional assay
[13] = target: VEGFR-2 on human endothelial cells (HUVEC; vasculature of human prostate tissue) (human, UniProt P35968 20-1356); experiment: cell-based or functional assay
Sequence of VEGFR-2 on human endothelial cells (HUVEC; vasculature of human prostate tissue) (P35968 20-1356): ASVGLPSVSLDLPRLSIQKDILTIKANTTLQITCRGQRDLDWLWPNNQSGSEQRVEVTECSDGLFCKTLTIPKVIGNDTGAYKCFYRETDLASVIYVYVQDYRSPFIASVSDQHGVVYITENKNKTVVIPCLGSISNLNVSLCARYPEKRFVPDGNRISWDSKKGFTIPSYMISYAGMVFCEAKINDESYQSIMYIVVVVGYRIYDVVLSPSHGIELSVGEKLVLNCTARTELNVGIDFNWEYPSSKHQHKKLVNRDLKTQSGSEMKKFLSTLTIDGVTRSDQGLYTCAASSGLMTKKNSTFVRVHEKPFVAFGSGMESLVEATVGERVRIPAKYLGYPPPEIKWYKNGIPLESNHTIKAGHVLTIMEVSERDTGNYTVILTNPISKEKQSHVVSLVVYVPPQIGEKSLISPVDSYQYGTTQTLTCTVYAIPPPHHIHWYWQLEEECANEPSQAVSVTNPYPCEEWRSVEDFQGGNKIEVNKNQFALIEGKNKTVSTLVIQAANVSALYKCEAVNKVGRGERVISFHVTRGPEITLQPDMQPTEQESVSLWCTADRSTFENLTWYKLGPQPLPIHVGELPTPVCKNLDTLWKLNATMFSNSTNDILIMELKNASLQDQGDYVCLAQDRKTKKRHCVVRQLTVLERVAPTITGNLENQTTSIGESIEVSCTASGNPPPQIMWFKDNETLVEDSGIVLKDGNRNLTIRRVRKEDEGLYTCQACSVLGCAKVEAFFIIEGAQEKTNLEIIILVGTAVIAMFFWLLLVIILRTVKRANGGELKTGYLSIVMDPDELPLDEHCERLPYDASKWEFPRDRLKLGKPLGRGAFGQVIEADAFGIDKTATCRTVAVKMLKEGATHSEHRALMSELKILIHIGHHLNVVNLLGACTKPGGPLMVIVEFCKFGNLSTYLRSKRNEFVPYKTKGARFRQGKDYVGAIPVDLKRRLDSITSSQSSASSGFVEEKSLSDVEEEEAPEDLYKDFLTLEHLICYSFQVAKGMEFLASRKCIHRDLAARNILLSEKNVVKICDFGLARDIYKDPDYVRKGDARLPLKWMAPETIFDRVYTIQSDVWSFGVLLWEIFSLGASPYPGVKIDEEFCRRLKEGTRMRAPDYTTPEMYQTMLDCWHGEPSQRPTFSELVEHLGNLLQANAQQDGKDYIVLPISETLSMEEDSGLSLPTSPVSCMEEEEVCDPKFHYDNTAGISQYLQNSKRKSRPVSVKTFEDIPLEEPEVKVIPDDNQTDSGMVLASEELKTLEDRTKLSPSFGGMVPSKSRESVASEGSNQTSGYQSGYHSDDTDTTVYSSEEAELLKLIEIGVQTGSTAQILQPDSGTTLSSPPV

Molecule: Fluorescein isothiocyanate (FITC)-labeled fibrinogen (ligand)
fold increase of binding [1]: > 40 fold | fold increase of binding [2]: 17 fold | fold increase of binding [3]: 3 fold | fold increase of binding [4]: 6 fold

Molecule: VEGF-A165 (ligand)
VEGFR-2 phosphorylation in DiYF EC (immunoprecipitation, anti-phosphotyrosine blot) [5]: 2.5 fold | VEGFR-2 phosphorylation in WT EC (immunoprecipitation, anti-phosphotyrosine blot) [5]: 6 fold

B1: αvβ3 integrin on human endothelial cells (HUVEC; vasculature of human prostate tissue) (receptor)
chain 1: FNLDVDSPAEYSGPEGSYFGFAVDFFVPSASSRMFLLVGAPKANTTQPGIVEGGQVLKCDWSSTRRCQPIEFDATGNRDYAKDDPLEFKSHQWFGASVRSKQDKILACAPLYHWRTEMKQEREPVGTCFLQDGTKTVEYAPCRSQDIDADGQGFCQGGFSIDFTKADRVLLGGPGSFYWQGQLISDQVAEIVSKYDPNVYSIKYNNQLATRTAQAIFDDSYLGYSVAVGDFNGDGIDDFVSGVPRAARTLGMVYIYDGKNMSSLYNFTGEQMAAYFGFSVAATDINGDDYADVFIGAPLFMDRGSDGKLQEVGQVSVSLQRASGDFQTTKLNGFEVFARFGSAIAPLGDLDQDGFNDIAIAAPYGGEDKKGIVYIFNGRSTGLNAVPSQILEGQWAARSMPPSFGYSMKGATDIDKNGYPDLIVGAFGVDRAILYRARPVITVNAGLEVYPSILNQDNKTCSLPGTALKVSCFNVRFCLKADGKGVLPRKLNFQVELLLDKLKQKGAIRRALFLYSRSPSHSKNMTISRGGLMQCEELIAYLRDESEFRDKLTPITIFMEYRLDYRTAADTTGLQPILNQFTPANISRQAHILLDCGEDNVCKPKLEVSVDSDQKKIYIGDDNPLTLIVKAQNQGEGAYEAELIVSIPLQADFIGVVRNNEALARLSCAFKTENQTRQVVCDLGNPMKAGTQLLAGLRFSVHQQSEMDTSVKFDLQIQSSNLFDKVSPVVSHKVDLAVLAAVEIRGVSSPDHVFLPIPNWEHKENPETEEDVGPVVQHIYELRNNGPSSFSKAMLHLQWPYKYNNNTLLYILHYDIDGPMNCTSDMEINPLRIKISSLQTTEKNDTVAGQGERDHLITKRDLALSEGDIHTLGCGVAQCLKIVCQVGRLDRGKSAILYVKSLLWTETFMNKENQNHSYSLKSSASFNVIEFPYKNLPIEDITNSTLVTTNVTWGIQPAPMPVPVWVIILAVLAGLLLLAVLVFVMYRMGFFKRVRPPQEEQEREQLQPHENGEGNSET
chain 2: GPNICTTRGVSSCQQCLAVSPMCAWCSDEALPLGSPRCDLKENLLKDNCAPESIEFPVSEARVLEDRPLSDKGSGDSSQVTQVSPQRIALRLRPDDSKNFSIQVRQVEDYPVDIYYLMDLSYSMKDDLWSIQNLGTKLATQMRKLTSNLRIGFGAFVDKPVSPYMYISPPEALENPCYDMKTTCLPMFGYKHVLTLTDQVTRFNEEVKKQSVSRNRDAPEGGFDAIMQATVCDEKIGWRNDASHLLVFTTDAKTHIALDGRLAGIVQPNDGQCHVGSDNHYSASTTMDYPSLGLMTEKLSQKNINLIFAVTENVVNLYQNYSELIPGTTVGVLSMDSSNVLQLIVDAYGKIRSKVELEVRDLPEELSLSFNATCLNNEVIPGLKSCMGLKIGDTVSFSIEAKVRGCPQEKEKSFTIKPVGFKDSLIVQVTFDCDCACQAQAEPNSHRCNNGNGTFECGVCRCGPGWLGSQCECSEEDYRPSQQDECSPREGQPVCSQRGECLCGQCVCHSSDFGKITGKYCECDDFSCVRYKGEMCSGHGQCSCGDCLCDSDWTGYYCNCTTRTDTCMSSNGLLCSGRGKCECGSCVCIQPGSYGDTCEKCPTCPDACTFKKECVECKKFDRGALHDENTCNRYCRDEIESVKELKDTGKDAVNCTYKNEDDCVVRFQYYEDSSGKSILYVVEEPECPKGPDILVVLLSVMGAILLIGLAALLIWKLLITIHDRKEFAKFEEERARAKWDTANNPLYKEATSTFTNITYRGT
fold decrease in VEGFR-2 phosphorylation in response to VEGF in HUVEC after β3 siRNA [13]: ~3 fold

Second part, the molecule after the results:

fold increase of binding [6]: 6 fold | fold increase of binding [7]: 30 fold | fold increase of binding [8]: 14 fold | fold increase of binding [9]: 9 fold | fold increase of binding [10]: 3.5 fold | fold increase of WOW-1 density [11]: 2.7 fold
Molecule: WOW-1 Fab

fold decrease in adhesion of DiYF EC to vitronectin-coated wells, against WT EC [12]: 2 fold | fold decrease in spreading of DiYF EC on vitronectin-coated wells, against WT EC [12]: 4 fold
Molecule: vitronectin (ligand)
